Data taken from US20180028658A1 (NEW YORK BLOOD CENTER, published 2018).

Tests used:
[1] = biological target: T1, HIV-1 Env expressed on the surface of ACH-2 cells reactivated with TNF-α (HIV-1); experiment: cell-based or functional assay
[2] = biological target: T2, BG505 SOSIP.664 gp140 trimer (HIV-1 BG505); experiment: method not given
T2 construct: domain: gp140; Provided by Dr. John P Moore; When cleaved, each protomer is a gp120 chain plus a gp41 ectodomain chain; also called BG505 SOSIP.646; cleavable version gp140 trimer

[3] = biological target: HIV-1 gp41 (strain not stated) (HIV-1); experiment: method not given
[4] = biological target: T2, BG505 SOSIP.664 gp140 trimer; experiment: SPR (BIAcore)
[5] = biological target: T2, BG505 SOSIP.664 gp140 trimer; experiment: SPR (BIAcore), Env protein immobilized on CM5 chip, antibody as analyte
[6] = biological target: HIV-1 gp41 (strain not stated) (HIV-1); experiment: as above
[7] = biological target: T3, full-length gp120 monomer (HIV-1 (Yu2 by the materials, not named …, UniProt P35961 32-498)); experiment: as above
T3 construct: domain: gp120; The tie to strain Yu2 is inferred from 'full-length Yu2 gp120 protein' in the materials. gp120IIIB and gp120BaL were also bought; General statements about 'gp120' are entered under this molecule; also called HIV-1 gp120 monomer; monomeric full-length gp120

[8] = biological target: T4, Recombinant gp41HXB2 (ecto-domain aa546 to 682) (HIV-1 HXB2, UniProt P04578 546-682); experiment: ELISA on coated gp41HXB2, OD at 405 nm
T4 construct: range 546-682; Bought from Aviva System Biology Corp; also called gp41 from HIV-1 HXB2 ecto-domain

SF162 gp140 trimer = biological target: T5, SF162 gp140 trimer (HIV-1 SF162, UniProt P19550 32-675); experiment: ELISA on coated SF162 gp140 trimer, OD at 405 nm, 1x PBS as blank
T5 construct: domain: gp140; Obtained from the NIH AIDS Reagent Program; also called non-cleavable version of gp140 trimer (SF162); uncleaved SF162 gp140 trimer

[9] = biological target: T3, full-length gp120 monomer; experiment: ELISA on coated full-length gp120 monomer, OD at 405 nm, 1x PBS as blank
[10] = biological target: T1, HIV-1 Env expressed on the surface of …; experiment: flow cytometry titration on activated ACH-2 cells, from 20 µg/ml in 1:3 dilutions, FITC second antibody
[11] = biological target: T3, full-length gp120 monomer; experiment: SPR (BIAcore); lower end of the stated KD range
[12] = biological target: T2, BG505 SOSIP.664 gp140 trimer; experiment: ELISA on coated BG505 SOSIP.664 gp140 trimer, OD at 405 nm, 1x PBS as blank

B1: vc-MMAE-NIH45-46 G54W (NYBC-HC-001) (antibody, V domains shown)
VH: QVRLSQSGGQMKKPGESMRLSCRASGYEFLNCPINWIRLAPGRRPEWMGWLKPRWGAVNYARKFQGRVTMTRDVYSDTAFLELRSLTSDDTAVYFCTRGKYCTARDYYNWDFEHWGRGAPVTVSS
VL: EIVLTQSPATLSLSPGETAIISCRTSQSGSLAWYQQRPGQAPRLVIYSGSTRAAGIPDRFSGSRWGADYNLSISNLESGDFGVYYCQQYEFFGQGTKVQVDI
modifications: MC-vc-PAB-MMAE linker payload on cysteines reduced with TCEP (sites and number not stated)
For B1, the “EC50 of cell killing, […]-BLUE cell viability assay on activated ACH-2 latent cells” value [1] was 0.85 µg/mL.

B2: NIH45-46 G54W (antibody, V domains shown)
VH: B1 VH
VL: B1 VL
notes: Human IgG1; Obtained from the NIH AIDS Reagent Program and also made recombinantly (VH and VK genes in human b12 Igγ and Igκ backbone vectors, 293T cells); FITC-labelled in the uptake experiments; also called NIH45-45 G54W
B2 showed a Kd [2] of ~0.1 nM, a Kd [3] of ~1 nM and a Kd [4] of 0.23 to 0.29 nM. For the same binder, the Kd [5] was 0.267 nM, the koff [5] was 5.37e-06 s⁻¹ and the kon [5] was 20100 M⁻¹ s⁻¹. The Kd [6] was 6.75 nM, the koff [6] was 0.00461 s⁻¹ and the kon [6] was 683000 M⁻¹ s⁻¹. The Kd [7] was 0.11 nM, the koff [7] was 4.94e-06 s⁻¹ and the binding result [8] was “binds”. For the same binder, the “EC50 (read off the curve)” value (SF162 gp140 trimer) was ~0.2 µg/mL, the “EC50 (read off the curve)” value [9] was ~0.5 µg/mL and the EC50 [10] was 5.2 µg/mL. The Kd [11] was 0.11 to 0.17 nM and the “EC50 (read off the curve)” value [12] was ~0.01 µg/mL.
